Results as given in PMC2929978 (Science (New York, N.Y.), 2010).

What was measured:
Assay in all cases: crystal structure
[1] = biological target: fiber protein derived from HAdV-35 (fiber of Ad35F) (human adenovirus 35 (HAdV-35))
[2] = biological target: hexon (major capsid protein) of the HAdV-5 vector Ad35F (human adenovirus 5 (HAdV-5), UniProt P04133 1-952)
crystal structure = biological target: the molecule itself

Molecule: fiber protein derived from HAdV-35 (fiber of Ad35F) (natural protein)
- stoichiometry N [1]: 3

B1: protein IX of the HAdV-5 vector Ad35F (natural protein)
chain: MSTNSFDGSIVSSYLTTRMPPWAGVRQNVMGSSIDGRPVLPANSTTLTYETVSGTPLETAASAAASAAAATARGIVTDFAFLSPLASSAASRSSARDDKLTALLAQLDSLTRELNVVSQQLLDLRQQVSALKASSPPNAV
- binding result [2]: binds

B2: penton base (PB) of the HAdV-5 vector Ad35F (natural protein)
chain: MRRAAMYEEGPPPSYESVVSAAPVAAALGSPFDAPLDPPFVPPRYLRPTGGRNSIRYSELAPLFDTTRVYLVDNKSTDVASLNYQNDHSNFLTTVIQNNDYSPGEASTQTINLDDRSHWGGDLKTILHTNMPNVNEFMFTNKFKARVMVSRLPTKDNQVELKYEWVEFTLPEGNYSETMTIDLMNNAIVEHYLKVGRQNGVLESDIGVKFDTRNFRLGFDPVTGLVMPGVYTNEAFHPDIILLPGCGVDFTHSRLSNLLGIRKRQPFQEGFRITYDDLEGGNIPALLDVDAYQASLKDDTEQGGGGAGGSNSSGSGAEENSNAAAAAMQPVEDMNDHAIRGDTFATRAEEKRAEAEAAAEAAAPAAQPEVEKPQKKPVIKPLTEDSKKRSYNLISNDSTFTQYRSWYLAYNYGDPQTGIRSWTLLCTPDVTCGSEQVYWSLPDMMQDPVTFRSTRQISNFPVVGAELLPVHSKSFYNDQAVYSQLIRQFTSLTHVFNRFPENQILARPPAPTITTVSENVPALTDHGTLPLRNSIGGVQRVTITDARRRTCPYVYKALGIVSPRVLSSRTF
- stoichiometry N (crystal structure): 5
